Blank lines part the entries; values can stand above or below the binder they belong to.
Legend:
[1] = target: T1, rHuman ErbB2/Fc Chimera, CF (R&D Systems Cat#1129-ER) (human, UniProt P04626 23-652); assay: MSD ECL multi-spot plate, antigen immobilized; Fab 8 nM; blank spot 489
T1 construct: Purchased Fc chimera; also called HER2/neu; not shown: Fc portion of the purchased chimera

[2] = target: T2, rHuman Notch-1/Fc Chimera, CF (R&D Systems Cat#3647-TK) (human, UniProt P46531 19-526); assay: as above
T2 construct: Purchased Fc chimera; not shown: Fc portion of the purchased chimera

[3] = target: T3, rHuman Erythropoietin R/Fc Chimera, CF (R&D Systems Cat#963-ER) (human, UniProt P19235 25-250); assay: ECL (MSD multi-spot), antigen spotted on plate; Fab 1410 nM; blank spot 709
T3 construct: Bought reagent; also called EPO R/Fc; Epo R; Fc part of the bought chimera not given
T3 sequence: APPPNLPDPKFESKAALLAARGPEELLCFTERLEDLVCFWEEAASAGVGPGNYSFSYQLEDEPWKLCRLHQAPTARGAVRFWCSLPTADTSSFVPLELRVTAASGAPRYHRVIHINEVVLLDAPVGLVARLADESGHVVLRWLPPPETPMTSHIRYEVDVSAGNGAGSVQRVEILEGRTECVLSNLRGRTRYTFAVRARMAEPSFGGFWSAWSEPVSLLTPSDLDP

[4] = target: T4, Recombinant Human DLL4 (R&D Systems Cat#1506-D4/CF) (human, UniProt Q9NR61 27-524); assay: as above
T4 construct: Bought reagent; also called delta-like protein 4

[5] = target: T5, rHuman ErbB2/Fc Chimera, CF (R&D Systems Cat#1129-ER) (human, UniProt P04626 23-652); assay: as above
T5 construct: Bought reagent; also called HER2/neu; human epidermal growth factor 2 receptor; Fc part of the bought chimera not given

[6] = target: T6, rHuman EGF R/Fc Chimera, CF (R&D Systems Cat#344-ER) (human, UniProt P00533 25-645); assay: as above
T6 construct: Bought reagent; also called epidermal growth factor receptor; Fc part of the bought chimera not given

[7] = target: T7, rHuman HGF R/c-MET/Fc Chimera, CF (R&D Systems Cat#358-MT/CF) (human, UniProt P08581 25-932); assay: as above
T7 construct: Bought reagent; also called HGF R/Fc; hepatocyte growth factor receptor; Fc part of the bought chimera not given

[8] = target: T8, rHuman Notch-1/Fc Chimera, CF (R&D Systems Cat#3647-TK) (human, UniProt P46531 19-526); assay: as above
T8 construct: Bought reagent; Fc part of the bought chimera not given

[9] = target: T9, rHuman CD44/Fc Chimera, CF (R&D Systems Cat#3660-CD) (human, UniProt P16070 21-220); assay: as above
T9 construct: Bought reagent; Fc part of the bought chimera not given

[10] = target: T10, rHuman IGF-1 sR (IGF-1 sR), CF (R&D Systems Cat#391-GR) (human, UniProt P08069 31-932); assay: as above
T10 construct: Bought soluble receptor; also called insulin-like growth factor-1 soluble receptor; IGF-R1

[11] = target: T11, rHuman P-Cadherin/Fc Chimera, CF (R&D Systems Cat#861-PC) (human, UniProt P22223 108-654); assay: as above
T11 construct: Bought reagent; also called CDH3; Fc part of the bought chimera not given

[12] = target: T3, rHuman Erythropoietin R/Fc Chimera, CF …; assay: ECL (MSD multi-spot), antigen spotted on plate; Fab 352.5 nM; blank spot 494
[13] = target: T4, Recombinant Human DLL4 (R&D Systems …); assay: as above
[14] = target: T5, rHuman ErbB2/Fc Chimera, CF (R&D …); assay: as above
[15] = target: T6, rHuman EGF R/Fc Chimera, CF (R&D …); assay: as above
[16] = target: T7, rHuman HGF R/c-MET/Fc Chimera, CF (R&D …); assay: as above
[17] = target: T9, rHuman CD44/Fc Chimera, CF (R&D Systems …); assay: as above
[18] = target: T10, rHuman IGF-1 sR (IGF-1 sR), CF (R&D …); assay: as above
[19] = target: T11, rHuman P-Cadherin/Fc Chimera, CF (R&D …); assay: as above
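Also: blank spot per well as comparator with Hit at signal to blank ratio of 4 or more.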

ECL signal [1]: 1230 ECL signal
ECL signal [2]: 831 ECL signal
B1: Fab VH5-51_IGHD5-18*01>3_IGHJ4*01_G100K & V3-4_IGLJ1*01 (Fab, V domains shown)
VH: EVQLVQSGAEVKKPGESLKISCKGSGYSFTSYWIGWVRQMPGKGLEWMGIIYPGDSDTRYSPSFQGQVTISADKSISTAYLQWSSLKASDTAMYYCARRKYSYGYDYFDYWGQGTLVTVSS
VL: QTVVTQEPSFSVSPGGTVTLTCGLSSGSVSTSYYPSWYQQTPGQAPRTLIYSTNTRSSGVPDRFSGSILGNKAALTITGAQADDESDYYCVLYMGSGISYVFGTGTKVTVL
notes: It was expressed as a Fab: CH1 with tags from Plasmid A and lambda CL from Plasmid E; also called Fab No. 22

ECL signal [3]: 4310
ECL signal [4]: 1260
ECL signal [5]: 932
ECL signal [6]: 1070
ECL signal [7]: 903
ECL signal [8]: 1030
ECL signal [9]: 885
ECL signal [10]: 426
ECL signal [11]: 1060
ECL signal [12]: 4100
ECL signal [13]: 660
ECL signal [14]: 514
ECL signal [15]: 769
ECL signal [16]: 606
ECL signal [17]: 556
ECL signal [18]: 528
ECL signal [19]: 649
B2: Fab VH1-46_IGHD3-10*01_IGHJ4*01 & B3_IGKJ1*01 (Fab, V domains shown)
VH: QVQLVQSGAEVKKPGASVKVSCKASGYTFTSYYMHWVRQAPGQGLEWMGIINPSGGSTSYAQKFQGRVTMTRDTSTSTVYMELSSLRSEDTAVYYCAREYYYGSGSYYNDYFDYWGQGTLVTVSS
VL: not shown
notes: also called IGHV1-46*01

Source: US20120058906A1 (published 2012)
